# T1: CD22 on Raji cells (UniProt P20273 20-847, limits assumed)
# T1 construct: whole, on cells
# T1 sequence (looked up): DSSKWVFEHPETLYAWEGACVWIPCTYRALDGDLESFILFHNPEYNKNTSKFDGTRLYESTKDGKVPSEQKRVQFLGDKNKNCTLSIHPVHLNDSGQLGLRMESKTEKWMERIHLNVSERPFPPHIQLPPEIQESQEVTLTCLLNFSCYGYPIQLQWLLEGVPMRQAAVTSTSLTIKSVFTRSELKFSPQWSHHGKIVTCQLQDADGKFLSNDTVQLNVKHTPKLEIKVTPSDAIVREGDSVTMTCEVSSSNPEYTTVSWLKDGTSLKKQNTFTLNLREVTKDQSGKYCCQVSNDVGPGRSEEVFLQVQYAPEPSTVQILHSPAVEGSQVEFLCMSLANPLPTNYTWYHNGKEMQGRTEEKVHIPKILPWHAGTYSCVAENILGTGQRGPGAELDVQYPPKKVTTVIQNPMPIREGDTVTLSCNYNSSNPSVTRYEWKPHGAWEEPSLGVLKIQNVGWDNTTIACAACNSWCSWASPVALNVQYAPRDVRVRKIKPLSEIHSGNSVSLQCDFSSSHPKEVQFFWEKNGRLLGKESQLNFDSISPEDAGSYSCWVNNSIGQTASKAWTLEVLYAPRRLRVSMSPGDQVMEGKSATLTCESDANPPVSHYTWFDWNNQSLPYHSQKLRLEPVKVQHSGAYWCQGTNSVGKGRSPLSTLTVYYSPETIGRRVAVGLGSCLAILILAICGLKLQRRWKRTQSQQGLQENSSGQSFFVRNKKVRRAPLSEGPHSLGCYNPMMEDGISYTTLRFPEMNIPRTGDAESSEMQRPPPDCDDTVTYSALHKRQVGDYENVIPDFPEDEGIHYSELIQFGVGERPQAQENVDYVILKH
# B1: FR-patched anti-CD22 antibody hpRFB4 (antibody, human IgG1, V domains shown)
# VH: EVQLLESGGGLVQPGGSLRLSCAASGFSFSIYDMSWVRQAPGKGLEWVAYISSGGGTTYYPDTVKGRFTISRDNAKNSLYLQMNSLRVEDTALYYCARHSGYGSSYGVLFAYWGQGTLVTVSS
# VL: DIQMTQSPSSLSASVGDRVTISCRASQDISNYLNWYQQKPGKAPKLLIYYTSILHSGVPSRFSGSGSGTEFTLTISSLQPEDFATYFCQQGNTLPWTFGGGTKVEIK
# notes: Expressed in Sp2/0 cells with a human IgG1 heavy chain constant region and a human kappa light chain constant region (vectors hpRFB4pSMh and hpRFB4pSMk); protein A purified; also called FR-patched antibody; FR-patched RFB4
# Biological target: T1, CD22 on Raji cells
# Assay: flow cytometry on Raji cells, 1 ug antibody, FITC goat anti-human IgG1 Fc detection
# Protocol: The mixtures were incubated for 30 minutes at 4° C. and washed three times with PBS to remove unbound antibodies. The binding levels of the antibodies to Raji cells were assessed by the addition of a 20x diluted FITC-labeled, goat anti-human IgG1, Fc fragment-specific antibodies (Jackson ImmunoResearch, West Grove, Pa.) in a final volume of 100 μl in PBS-FA, and incubating for 30 minutes at 4° C.
binder,measurement,value
B1,binding result,binds

# From patent publication US20030040606A1 (SKYTECH TECHNOLOGY, published 2003)
